Laboratory results reported in patent US20160237154A1 (SORRENTO THERAPEUTICS, published 2016).

Columns and labels:
[1] = target: T1, mouse CTLA4/His (mouse, UniProt P09793 36-162, limits assumed); assay: ELISA, CTLA4/His captured on Ni-NTA plate, antibody ~1 ug/mL, anti-human Fc-HRP
T1 construct: also called murine CTLA4; not shown: His tag
Description: Using a 96-well Ni-NTA plate recombinant human CTLA4/His, cynomolgus CTLA4/His or mouse CTLA4/His @ 1 μg/mL were captured. The plate was incubated for 30 min at room temperature, washed 3 times with PBS-Tween (PBST), then anti-CTLA4 antibodies (˜1 μg/mL) diluted in casein were added and incubated for 30 min with shaking. The plate was washed 3 times with PBST, horseradish peroxidase (HRP)-conjugated goat anti-human Fc (1:500 in casein) was added, then 3,3′,5,5′-Tetramethylbenzidine (TMB) was added as substrate and developed about 5 min. 2M H₂SO₄ was used to stop the reaction and the OD was read at 450 nm.

[2] = target: T2, recombinant human CTLA4 (as human Fc fusion) (human, UniProt P16410 37-162, limits assumed); assay: blocking ELISA: serially diluted IgG pre-mixed with recombinant human CTLA4-Fc, transferred to a Ni-NTA plate coated with His-tagged human CD80 (the blocked ligand); HRP anti-human Fc, OD 450
T2 construct: not shown: human Fc
T2 sequence (looked up): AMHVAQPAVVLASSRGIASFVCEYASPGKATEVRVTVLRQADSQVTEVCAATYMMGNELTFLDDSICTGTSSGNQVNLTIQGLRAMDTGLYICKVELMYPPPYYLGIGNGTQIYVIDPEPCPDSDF
Description: (§1) Assays were performed to determine the ability of antibody CT1E1 to inhibit CD80 and CD86 activity. A 96-well Ni-NTA plate was coated with 1 μg/mL recombinant human CD80 or CD86 with hexahistidine tag at room temperature for 1 h. Pre-mixed 30 μL serial 3-fold diluted IgGs (started from 25 μg/mL) and 30 μL of […] recombinant human CTLA4 (as human Fc fusion) and incubated the mixtures for 30 minutes, then washed the plate with PBS-Tween (PBST) 3 times. The mixtures were transferred 50 μL to the ELISA plate and incubated 30 min with shaking. The plate was washed 3 times with PBST, then horseradish peroxidase (HRP)-conjugated goat anti-human Fc (1:500 in casein) was added, then 3,3′,5,5′-Tetramethylbenzidine (TMB) was added as substrate and developed 30 min. 2M H₂SO₄ was used to stop the reaction and the OD was read at 450 nm.

[3] = target: T2, recombinant human CTLA4 (as human Fc …); assay: blocking ELISA: serially diluted IgG pre-mixed with recombinant human CTLA4-Fc, transferred to a Ni-NTA plate coated with His-tagged human CD86 (the blocked ligand); HRP anti-human Fc, OD 450
Description: as §1

[4] = target: T3, Recombinant human CTLA4/His (human, UniProt P16410 36-162, limits assumed); assay: SPR (BiaCore), antibody captured on anti-human Fc, His-tagged analyte, 1:1 model
T3 construct: not shown: His tag
T3 sequence (looked up): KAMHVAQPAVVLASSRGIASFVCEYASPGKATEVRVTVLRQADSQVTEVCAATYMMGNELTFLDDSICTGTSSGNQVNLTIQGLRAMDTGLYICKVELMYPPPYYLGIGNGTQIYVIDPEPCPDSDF
Description: The affinity of antibody CT1E1 for human CTLA4 was also determined using surface plasmon resonance (BiaCore). Anti-human Fc antibody (GE, BR-1008-39) was immobilized on CM5 sensor chip to approximately 1000 RU using standard NHS/EDC coupling methodology. Antibodies (about 10 μg/ml) were captured for 60 s at a flow rate 10 ul/min Recombinant human […] was serially diluted in running buffer (HBS-EP). All measurements were conducted in HBS-EP buffer with a flow rate of 30 μL/min. The antibody was diluted appropriately to obtain a series of concentrations. A 1:1 (Langmuir) binding model was used to fit the data. The Chi2 (chi-squared) value was used as a guideline for fitting quality. Results from the affinity studies are provided below in Table 2.

binding result [1]: binds
IC50 [2]: 0.313 nM
IC50 [3]: 0.329 nM
Kd [4]: 1.81 nM
koff [4]: 0.000242 s⁻¹
kon [4]: 133000 M⁻¹ s⁻¹
B1: CT1E1 (antibody, V domains shown)
VH: EVQLVESGGGLVQPGRSLRLSCRGSNFNFDDLAISWVRQAPGKGLEWLGFVRSKAYGETTDYVASVKGRFTISRDDSKFIAWLQMDSLKTDDTAVYYCTTFNYWGQGTLVTVSS
VL: QPVLTQPPSVSVAPGKTARISCGGNNIASEAVHWYQKKPGQAPVLVIYYDSDRPSGIPERFSGSNSGNTATLRISRVDAGDEADYYCQVWDRTTDQPVFGGGTKLTVL
notes: also called human anti-CTLA4 antibody CT1E1
